Measurements from paper doi:10.1101/2024.02.16.580631 (bioRxiv, 2024).

Biological target: the molecule itself
Assay: crystal structure

B1: Nucleoside diphosphate kinase B (NDPKB), human (enzyme)
chain: ANLERTFIAIKPDGVQRGLVGEIIKRFEQKGFRLVAMKFLRASEEHLKQHYIDLKDRPFFPGLVKYMNSGPVVAMVWEGLNVVKTGRVMLGETNPADSKPGTIRGDFCIQVGRNIIHGSDSVKSAEKEISLWFKPEELVDYKSCAHDWVYE
modifications: phosphorylated histidine at 118 (His 118-P) in the crystal
stoichiometry N: 6
